Experimental data: PMC6242696 (Cell, 2018)
Substitutions are numbered along the chain they refer to. Blank lines part the entries; values can stand above or below the binder they belong to.

What was measured:
[1] = biological target: T1, GDP/GTP carrier Ggc1 (containing the mutation C222S), C-terminal 6xHis-tag (Saccharomyces cerevisiae, C222S (stands in the printed letters)); assay: SAXS with online Ni-NTA purification
T1 chain: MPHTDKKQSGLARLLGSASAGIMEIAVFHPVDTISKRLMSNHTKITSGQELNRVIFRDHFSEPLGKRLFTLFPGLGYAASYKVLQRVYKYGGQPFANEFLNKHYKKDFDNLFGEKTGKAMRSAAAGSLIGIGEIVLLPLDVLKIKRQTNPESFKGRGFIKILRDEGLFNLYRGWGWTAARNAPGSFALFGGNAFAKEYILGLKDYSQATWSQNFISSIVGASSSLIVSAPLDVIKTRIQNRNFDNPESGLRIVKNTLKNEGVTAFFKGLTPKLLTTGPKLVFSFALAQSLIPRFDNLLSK

[2] = biological target: Aac3(2TM), comprising transmembrane helices 2 and 3 (residues 50-180), N-terminal 6xHis-Tag; assay: AUC + other: diffusion-ordered NMR
[3] = biological target: T1, GDP/GTP carrier Ggc1 (containing the …); assay: AUC + other: diffusion-ordered NMR
[4] = biological target: the molecule itself; assay: SEC
[5] = biological target: T2, Tim10 M32K (subunit of the mutant complex) (Saccharomyces cerevisiae, UniProt P87108 2-93, M32K); assay: SEC
T2 sequence (looked up): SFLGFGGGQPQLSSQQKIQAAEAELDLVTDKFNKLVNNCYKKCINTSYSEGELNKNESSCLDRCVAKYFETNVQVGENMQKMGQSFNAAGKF

[6] = biological target: T3, Tim10 V29K (subunit of the mutant complex) (Saccharomyces cerevisiae, UniProt P87108 2-93, V29K); assay: SEC
T3 sequence (looked up): T2 sequence (looked up) with V28K, K31M

- stoichiometry N [1]: 2 TIM9⋅10 hexamers per Ggc1
- stoichiometry N [2]: 1 TIM9⋅10 hexamer per precursor chain
- stoichiometry N [3]: 2 TIM9⋅10 hexamers per precursor protein
B1: TIM9⋅10 chaperone complex (hexamer of Tim9 and Tim10), wild type (complex, Saccharomyces cerevisiae)
chain 1: MDALNSKEQQEFQKVVEQKQMKDFMRLYSNLVERCFTDCVNDFTTSKLTNKEQTCIMKCSEKFLKHSERVGQRFQEQNAALGQGLGR
chain 2: GSFLGFGGGQPQLSSQQKIQAAEAELDLVTDMFNKLVNNCYKKCINTSYSEGELNKNESSCLDRCVAKYFETNVQVGENMQKMGQSFNAAGKF

- binding result [5]: binds
- binding result [6]: binds
B2: Tim9 (individual subunit) (natural protein, Saccharomyces cerevisiae)
chain: B1 chain 1
- stoichiometry N [4]: 2
